{"source": "paper PMC9491548", "about": "“The primary familial brain calcification-associated protein MYORG is an α-galactosidase with restricted substrate specificity” (PLoS Biology, 2022)", "key": {"[1]": {"molecular_target": "T1, MYORG (myogenesis-regulating glycosidase) (Homo sapiens, UniProt Q6NSJ0)", "T1 sequence (Q6NSJ0 80-714)": "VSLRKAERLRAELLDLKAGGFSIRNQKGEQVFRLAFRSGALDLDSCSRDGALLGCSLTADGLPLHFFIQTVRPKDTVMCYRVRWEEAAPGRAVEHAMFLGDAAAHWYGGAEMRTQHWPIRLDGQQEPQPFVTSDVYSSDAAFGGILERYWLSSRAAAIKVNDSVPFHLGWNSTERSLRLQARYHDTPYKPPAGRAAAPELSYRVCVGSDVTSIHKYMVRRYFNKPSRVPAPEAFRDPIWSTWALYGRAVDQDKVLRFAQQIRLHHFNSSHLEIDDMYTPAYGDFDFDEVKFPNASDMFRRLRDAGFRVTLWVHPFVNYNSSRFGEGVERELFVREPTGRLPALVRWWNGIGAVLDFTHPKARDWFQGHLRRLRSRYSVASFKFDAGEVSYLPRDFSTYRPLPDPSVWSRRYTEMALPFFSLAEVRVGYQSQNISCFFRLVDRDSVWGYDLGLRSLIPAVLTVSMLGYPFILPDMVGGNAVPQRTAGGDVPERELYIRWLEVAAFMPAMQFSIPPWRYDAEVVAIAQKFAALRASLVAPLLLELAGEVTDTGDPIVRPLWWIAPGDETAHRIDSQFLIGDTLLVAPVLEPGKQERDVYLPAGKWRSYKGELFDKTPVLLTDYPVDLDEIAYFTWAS"}, "[2]": {"molecular_target": "T1, MYORG (myogenesis-regulating glycosidase)", "test": "ITC; crystal structure ([…] Å soak); thermal shift (ΔTm […] °C); inhibition of 4MU-Gal hydrolysis", "type": "binding", "design": "residues 80–714 (MYORGGH31)"}, "[3]": {"molecular_target": "myogenesis-regulating glycosidase (MYORG) residues 80-714, deglycosylated with EndoH (human)", "test": "SEC-MALS; SEC-MALLS; Superdex S200 10/300 GL in 20 mM HEPES (pH 7.5), 200 mM NaCl; ambient temperature; 100 ul of 3 mg/ml MYORG injected; 0.5 ml/min"}, "[4]": {"molecular_target": "myogenesis-regulating glycosidase (MYORG) residues 80-714, glycosylated (human)", "test": "SEC-MALS; SEC-MALLS; Superdex S200 10/300 GL in 20 mM HEPES (pH 7.5), 200 mM NaCl; ambient temperature; 100 ul of 3 mg/ml MYORG injected; 0.5 ml/min"}, "[5]": {"substrate": "OC[C@H]1O[C@H](O[C@H]2[C@H](O)[C@@H](O)C(O)O[C@@H]2CO)[C@H](O)[C@@H](O)[C@H]1O", "test": "Michaelis–Menten kinetics with purified enzyme (glucose oxidase/HRP paired-enzyme assay); KM", "type": "biochemical, Homo sapiens", "conditions": "active site, −[…] and +[…] subsites"}}, "data": [{"molecule": "Cc1cc(=O)oc2cc(O[C@H]3O[C@H](CO)[C@H](O)[C@H](O)[C@H]3O)ccc12", "note": "[4MU-Gal]", "values": [{"measurement": "fluorogenic hydrolysis by purified enzyme; kcat/KM", "setting": "[1]", "value": "7.247 ± 0.0637", "unit": "M⁻¹ s⁻¹"}]}, {"molecule": "OC[C@H]1NC[C@H](O)[C@@H](O)[C@H]1O", "note": "[DGJ, deoxygalactonojirimycin]", "values": [{"measurement": "Kd", "setting": "[2]", "value": "1330 ± 450", "unit": "nM"}]}, {"molecule": "myogenesis-regulating glycosidase (MYORG) residues 80-714, deglycosylated with EndoH (domain or fragment)", "values": [{"measurement": "stoichiometry N", "setting": "[3]", "value": 2}]}, {"molecule": "myogenesis-regulating glycosidase (MYORG) residues 80-714, glycosylated (domain or fragment)", "values": [{"measurement": "stoichiometry N", "setting": "[4]", "value": 2}]}, {"molecule": "MYORG (myogenesis-regulating glycosidase) (Homo sapiens) (protein, residues 80–714 (MYORGGH31)) VSLRKAERLRAELLDLKAGGFSIRNQKGEQVFRLAFRSGALDLDSCSRDGALLGCSLTADGLPLHFFIQTVRPKDTVMCYRVRWEEAAPGRAVEHAMFLGDAAAHWYGGAEMRTQHWPIRLDGQQEPQPFVTSDVYSSDAAFGGILERYWLSSRAAAIKVNDSVPFHLGWNSTERSLRLQARYHDTPYKPPAGRAAAPELSYRVCVGSDVTSIHKYMVRRYFNKPSRVPAPEAFRDPIWSTWALYGRAVDQDKVLRFAQQIRLHHFNSSHLEIDDMYTPAYGDFDFDEVKFPNASDMFRRLRDAGFRVTLWVHPFVNYNSSRFGEGVERELFVREPTGRLPALVRWWNGIGAVLDFTHPKARDWFQGHLRRLRSRYSVASFKFDAGEVSYLPRDFSTYRPLPDPSVWSRRYTEMALPFFSLAEVRVGYQSQNISCFFRLVDRDSVWGYDLGLRSLIPAVLTVSMLGYPFILPDMVGGNAVPQRTAGGDVPERELYIRWLEVAAFMPAMQFSIPPWRYDAEVVAIAQKFAALRASLVAPLLLELAGEVTDTGDPIVRPLWWIAPGDETAHRIDSQFLIGDTLLVAPVLEPGKQERDVYLPAGKWRSYKGELFDKTPVLLTDYPVDLDEIAYFTWAS", "values": [{"measurement": "Km", "setting": "[5]", "value": "980 ± 7", "unit": "µM"}]}]}
